For assay [1], the target named is T1, biotinylated c-Met-Fc (R&D Systems, #358-MT-100/CF, 5.1 biotin per c-Met molecule) (human, UniProt P08581 25-932, biotinylated, 5.1 biotin per c-Met molecule (Pierce #21335)).
T1 construct: extracellular domain; Captured on a streptavidin (SA) chip for the BIAcore study of the IgGs; Fc part of the bought chimera not given
Briefly: SPR (BIAcore), biotinylated c-Met-Fc captured on streptavidin chip, IgG as analyte, bivalent model. The protocol:
The binding properties (on-rate, off-rate and affinity) of c-Met monoclonal antibodies (IgG or Fab versions) with human c-Met extracellular domain was determined using surface plasmon resonance, or BLAcore, technology. For the binding studies with IgG, a low density (<1 ng/mm2) of c-Met-Fc (R&D Systems, #358-MT-100/CF) containing 5.1 biotin per c-Met molecule (prepared with Pierce #21335 as per manufacturer's instructions) was captured onto a SA chip precoated with Streptavidin (BIAcore Inc.). A streptavidin flow cell without adsorbed c-Met-Fc was used as a control cell for non-specificbinding. The antibody sample to be analyzed was prepared in HEPES buffer (0.15M NaCl, 10 mM HEPES, 3.4 mM EDTA, 0.005% surfactant P-20, pH 7.4) to form a set of solutions varied in concentration from 0.78 nM to 100 nM. The HEPES buffer used as the running solution was set at a flow rate of 50 ul/min. Each sample solution was injected over the two flow cells for three minutes, followed by 5 minutes of dissociation. The flow cells were then regenerated with 4.5M MgCl₂ for one minute to remove the bound antibody for the next cycle of binding study. The net sensorgrams (subtraction of sensorgrams from the negative control flow cell as well as that from the buffer blank) obtained for each set of samples were processed simultaneously in a global fitting using a bivalent binding model of the BIAevaluation software program equipped with the system. The on-rate (Kₐ), off-rate (Kd) and binding affinity (KD) were determined from the fitting with KD equal to kd/kₐ.

For assay [2], the target named is c-Met (endogenous, on human cell lines 184B5, HCT-116, DU-145 and NCI H441) (human, UniProt P08581 25-1390). Briefly: cell-based or functional assay.
Assay [3] has as its target T2, c-Met/Fc Chimera (R&D Systems, catalog # 358-MT-100) (human, UniProt P08581 25-932).
T2 construct: extracellular domain; Bought reagent; also called human c-Met-Fc fusion protein; recombinant c-Met protein; Fc part of the bought chimera not given
Briefly: competition ELISA: displacement of biotinylated HGF from plate-coated c-Met/Fc chimera, IgG, n = 2. The protocol:
96-well Fluoronunc plates were coated with 50 ul of 0.5 ug/ml c-Met/Fc Chimera (R&D Systems, Minneapolis Minn., catalog # 358-MT-100) in phosphate buffered saline (PBS) and the plates were incubated overnight at room temperature. Wells were washed three times with washing buffer (PBS+0.1% Tween 20), blotting the plates on paper towels between each wash. Nonspecific binding in the wells was blocked by the addition of 250 ul of blocking buffer (3.0% milk (Carnation) in PBS) to each well and incubated at room temperature for two hours.
The c-Met antibodies were diluted in reagent buffer (PBS, 0.5% BSA, 0.05% Tween-20) and titrations were performed in 96 well polypropylene plates. Biotinylated HGF (0.4 ug/ml) (R&D Systems, biotinylated with Pierce #21335 as per manufacturer's instructions) was added to each well. 50 ul of the dilutions were transferred into the Fluoronunc plates containing human c-Met-Fc fusion protein (R&D Systems, #) and the plates were incubated for two hours at room temperature. The plates were washed three times with wash buffer and blotted onto paper towels. 50 ul of europium-labeled Streptavidin (Wallac Perkin Elmer) diluted 1:1000 in Delfia assay buffer (Wallac Perkin Elmer) was added per well and the plates were incubated for one hour at room temperature. The plates were washed seven times with Delfia wash buffer (Tris buffered saline (TBS) supplemented with 0.1% Tween-20) and blotted onto paper towels. 100 ul Delfia enhancer solution (Wallac Perkin Elmer) was added to each well and the plates incubated for 5 minutes on a plate shaker at room temperature. Plates were read on a fluorescence plate reader and analyzed using GraphPad Prism software (GraphPad Software, San Diego, Calif.).
C-Met antibodies 1A3.3.13 (#HB-11894, ATCC Hybridoma) and 5D5.11.6 (#HB-11895, ATCC Hybridoma) were used as positive controls. MOPC-21 (#M-7894, Sigma) was used as an IgG isotype control and HB-94 (#HB-94, ATCC Hybridoma) was converted into a Fab fragment and used as a Fab isotype control. NK4-Elastase is a kringle to kringle 4 fragment resulting from digesting intact HGF purified from S-114 cells with elastase (Date et al., FEBS Lett. 420:1-6 ([…]).

The target of assay [4] is T2, c-Met/Fc Chimera (R&D Systems, catalog …). Briefly: SPR (BIAcore), c-Met-Fc captured on protein A CM5 chip, Fab as analyte, 1:1 Langmuir model. Here is the method: For the binding study of Fab fragments derived from antibodies of the invention, a high density (>2 ng/mm²) of protein A was first immobilized covalently onto a CM5 sensorchip using EDC/NHS amine coupling chemistry [. The flow cell containing c-Met-Fc captured by the protein A was used as the positive control while a flow cell containing only protein A was used as the negative control. The Fab sample to be analyzed was as above for antibodies to form a set of solutions with concentration ranged from 3.9 nM to 500 nM. The HEPES buffer used as the running solution was set at a flow rate of 50 ul/min. For each cycle of binding study, low density (<1 ng/mm²) of c-Met-Fc was captured first onto the positive flow cell. Each sample solution was then injected over the two flow cells (one negative and one positive in series) for three minutes followed by 5 minutes of dissociation. The flow cells were then regenerated with 4.5M MgCl₂ for one minute to remove the bound c-Met-Fc/Fab complexes for the next cycle of binding. The net sensorgrams (subtraction of sensorgrams from the negative control flow cell as well as that from the buffer blank) obtained from the set of samples were fitted simultaneously in a global fitting using a Langmuir 1:1 binding model of the BIAevaluation program equipped with the system. The on-rate (Kₐ), off-rate (Kd) and binding affinity (KD) were determined from the fitting with KD equal to kd/kₐ.
In general terms: SPR reads the build-up and loss of mass on a sensor chip optically.

B1: c-Met IgG antibody 12123 (antibody, V domains shown)
VH: QVQLQESGPGLVKPSATLSLTCAVSGGSISSNHWWSWVRQSPGKGLEWIGEIYTYGGANYNPSLKSRVDISMDKSKNQFSLHLSSVTAADTAVYYCGRHLTGYDCFDIWGQGTLVTVSS
VL: QAVLTQPSSVSGAPGQRVTISCTGSSSNIGAGYDVHWYQQLPGTAPKLLIYGNSNRPSGVPDRFSGSKSGTSASLAITGLQAEDEADYYCQSYDSSLSGVFGTGTQLTVLS
notes: IgG of scFv PGIA-3-B2; The VL reverse cloning primer RH62 codes ...TVLG whereas the scFv entry ends ...TVLS; also called 12123 IgG; IgG of scFv PGIA-03-B2 (PGIA-3-B2)
In assay [1], B1 gave a Kd of 9.7 nM, a koff of 0.00329 s⁻¹ and an on-rate (kon) of 338000 M⁻¹ s⁻¹. Also, in assay [2], the “scatter assay on DU-145 cells, mean object area, agonist (alone), 100 nM IgG; the smaller the number, the more scattering” value is 234 mean object area and the “scatter assay on DU-145 cells, mean object area, antagonist (w/30 pM HGF), 100 nM IgG; the smaller the number, the more scattering” value came out at 226 mean object area. In addition, the half-inhibitory concentration (IC50) in assay [3] is 0.5 nM.

B2: c-Met IgG antibody 12133 (antibody, V domains shown)
VH: QVQLQESGPGLVKPSGTLSLTCAVSGGSISTSDWWSWVRRPPGKGLEWIGEIYHSGSTNYHPSLKSRVTISLDKSKNQFSLKLSSVTAADTAVYYCAREGGHSGSYPLDYWGRGTLVTVSS
VL: NFMLTQPHSVSESPGKTATISCTGSGGSIARSYVQWYQQRPGRAPSIVIYEDYQRPSGVPDRFSGSIDSSSNSASLTITGLKTDDEADYYCQSSDDNNNVVFGGGTKVTVLG
notes: IgG of scFv PGIA-4-A5; also called 12133 IgG; IgG of scFv PGIA-04-A5 (PGIA-4-A5)
In assay [1], B2 gave a Kd of 6 nM, an off-rate constant (koff) of 0.000598 s⁻¹ and a kon of 98900 M⁻¹ s⁻¹. Further, in assay [2], the “scatter assay on DU-145 cells, mean object area, agonist (alone), 100 nM IgG; the smaller the number, the more scattering” value amounted to 241 mean object area and the “scatter assay on DU-145 cells, mean object area, antagonist (w/30 pM HGF), 100 nM IgG; the smaller the number, the more scattering” value turned out to be 230 mean object area. Also, the IC50 in assay [3] turned out to be 0.58 nM.

B3: c-Met 12133 Fab (Fab, V domains shown)
VH: QVQLQESGPGLVKPSGTLSLTCAVSGGSISTSDWWSWVRRPPGKGLEWIGEIYHSGSTNYHPSLKSRVTISLDKSKNQFSLKLSSVTAADTAVYYCAREGGHSGSYPLDYWGRGTLVTVSS
VL: NFMLTQPHSVSESPGKTATISCTGSGGSIARSYVQWYQQRPGRAPSIVIYEDYQRPSGVPDRFSGSIDSSSNSASLTITGLKTDDEADYYCQSSDDNNNVVFGGGTKVTVLG
notes: VH and VL limits counted as for the IgG; also called Fab fragment derived from c-Met antibody 12133
In assay [4], B3 showed a Kd of 8.8 nM, a koff of 0.00245 s⁻¹ and a kon of 280000 M⁻¹ s⁻¹.

B4: c-Met IgG antibody 11986 (antibody, V domains shown)
VH: EVQLVQSGAEVKKPGATLKVSCKVSAYTFTDYSMHWVQQAPGKGLKWMGLIDLEDGNTIYAEEFQDRVTITADTSTDTAYMDLSSLRSEDTAVFYCAISPLRGLTADVFDVWGQGTLVTVSS
VL: QSALTQPASASGSPGQSITISCTGTSSDIGRYDFVSWYQRQPGKAPKLMIYDVINRPSGVSSRFSGSKSGNTASLTISGLQAEDEADYYCSSYAGSTTLYVFGTGTKLTVLG
notes: IgG of scFv PGIA-3-B1; also called 11986 IgG; IgG of scFv PGIA-03-B1 (PGIA-3-B1)
Molecule B4 returned an IC50 in assay [3] of 0.52 nM.

B5: c-Met IgG antibody 12136 (antibody, V domains shown)
VH: QVQLQESGPGLVKPSETLSLTCNVSGGSIRNYFWSWIRQPPGQGLEYIGYIYYSGTTDYNPSLKGRVTISLDTSKTQFSLKLNSVTAADTAFYYCVRGPNKYAFDPWGQGTLVTVSS
VL: SYELTQPPSVSVSPGQTASITCSGDKLGDKFASWYQQKAGQSPVLVIYRDTKRPSGIPERFSGSNSGNTATLTISGTQAMDEADYYCQAWDSSTAVFGTGTKVTVLG
notes: IgG of scFv PGIA-4-A8; also called 12136 IgG; IgG of scFv PGIA-04-A8 (PGIA-4-A8)
In assay [1], B5 registered a Kd of 0.8 nM, a koff of 0.000229 s⁻¹ and a kon of 294000 M⁻¹ s⁻¹. The half-inhibitory concentration (IC50) in assay [3] was determined as 1 nM.

B6: c-Met 12136 Fab (Fab, V domains shown)
VH: QVQLQESGPGLVKPSETLSLTCNVSGGSIRNYFWSWIRQPPGQGLEYIGYIYYSGTTDYNPSLKGRVTISLDTSKTQFSLKLNSVTAADTAFYYCVRGPNKYAFDPWGQGTLVTVSS
VL: SYELTQPPSVSVSPGQTASITCSGDKLGDKFASWYQQKAGQSPVLVIYRDTKRPSGIPERFSGSNSGNTATLTISGTQAMDEADYYCQAWDSSTAVFGTGTKVTVLG
notes: VH and VL limits counted as for the IgG; also called Fab fragment derived from c-Met antibody 12136
In assay [4], B6 yielded a Kd of 6 nM, a koff of 0.00101 s⁻¹ and a kon of 168000 M⁻¹ s⁻¹.

One may read the koff as the first-order rate constant of dissociation. What is called kon is the rate constant with which the complex forms. Broadly, the IC50 is the midpoint of a concentration-inhibition curve. Read a high IC50 as lower potency.
